Columns and labels:
[1] = target: T1, human β2-glycoprotein I (β2-GPI) (human, UniProt P02749 20-345); assay: flow cytometry of surface β2-GPI on 293T; HLA-DRB1*01:03
T1 construct: whole, on cells
T1 sequence (looked up): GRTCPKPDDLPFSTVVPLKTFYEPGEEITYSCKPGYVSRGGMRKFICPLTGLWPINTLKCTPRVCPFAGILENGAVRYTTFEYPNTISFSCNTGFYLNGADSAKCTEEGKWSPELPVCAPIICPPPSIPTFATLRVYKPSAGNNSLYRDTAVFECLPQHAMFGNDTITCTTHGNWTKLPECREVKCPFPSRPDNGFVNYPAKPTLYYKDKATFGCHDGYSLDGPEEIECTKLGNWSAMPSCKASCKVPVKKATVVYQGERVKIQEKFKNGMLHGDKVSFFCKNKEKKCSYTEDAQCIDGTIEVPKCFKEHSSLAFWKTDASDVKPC

human thyroglobulin (TG) [2] = target: T2, human thyroglobulin (TG) (human, UniProt P01266 20-2768); assay: flow cytometry of surface TG (anti-histidine antibody) on 293T; HLA-DRB1*01:03
T2 construct: whole, on cells; the tag is not described
T2 sequence (P01266 20-2768): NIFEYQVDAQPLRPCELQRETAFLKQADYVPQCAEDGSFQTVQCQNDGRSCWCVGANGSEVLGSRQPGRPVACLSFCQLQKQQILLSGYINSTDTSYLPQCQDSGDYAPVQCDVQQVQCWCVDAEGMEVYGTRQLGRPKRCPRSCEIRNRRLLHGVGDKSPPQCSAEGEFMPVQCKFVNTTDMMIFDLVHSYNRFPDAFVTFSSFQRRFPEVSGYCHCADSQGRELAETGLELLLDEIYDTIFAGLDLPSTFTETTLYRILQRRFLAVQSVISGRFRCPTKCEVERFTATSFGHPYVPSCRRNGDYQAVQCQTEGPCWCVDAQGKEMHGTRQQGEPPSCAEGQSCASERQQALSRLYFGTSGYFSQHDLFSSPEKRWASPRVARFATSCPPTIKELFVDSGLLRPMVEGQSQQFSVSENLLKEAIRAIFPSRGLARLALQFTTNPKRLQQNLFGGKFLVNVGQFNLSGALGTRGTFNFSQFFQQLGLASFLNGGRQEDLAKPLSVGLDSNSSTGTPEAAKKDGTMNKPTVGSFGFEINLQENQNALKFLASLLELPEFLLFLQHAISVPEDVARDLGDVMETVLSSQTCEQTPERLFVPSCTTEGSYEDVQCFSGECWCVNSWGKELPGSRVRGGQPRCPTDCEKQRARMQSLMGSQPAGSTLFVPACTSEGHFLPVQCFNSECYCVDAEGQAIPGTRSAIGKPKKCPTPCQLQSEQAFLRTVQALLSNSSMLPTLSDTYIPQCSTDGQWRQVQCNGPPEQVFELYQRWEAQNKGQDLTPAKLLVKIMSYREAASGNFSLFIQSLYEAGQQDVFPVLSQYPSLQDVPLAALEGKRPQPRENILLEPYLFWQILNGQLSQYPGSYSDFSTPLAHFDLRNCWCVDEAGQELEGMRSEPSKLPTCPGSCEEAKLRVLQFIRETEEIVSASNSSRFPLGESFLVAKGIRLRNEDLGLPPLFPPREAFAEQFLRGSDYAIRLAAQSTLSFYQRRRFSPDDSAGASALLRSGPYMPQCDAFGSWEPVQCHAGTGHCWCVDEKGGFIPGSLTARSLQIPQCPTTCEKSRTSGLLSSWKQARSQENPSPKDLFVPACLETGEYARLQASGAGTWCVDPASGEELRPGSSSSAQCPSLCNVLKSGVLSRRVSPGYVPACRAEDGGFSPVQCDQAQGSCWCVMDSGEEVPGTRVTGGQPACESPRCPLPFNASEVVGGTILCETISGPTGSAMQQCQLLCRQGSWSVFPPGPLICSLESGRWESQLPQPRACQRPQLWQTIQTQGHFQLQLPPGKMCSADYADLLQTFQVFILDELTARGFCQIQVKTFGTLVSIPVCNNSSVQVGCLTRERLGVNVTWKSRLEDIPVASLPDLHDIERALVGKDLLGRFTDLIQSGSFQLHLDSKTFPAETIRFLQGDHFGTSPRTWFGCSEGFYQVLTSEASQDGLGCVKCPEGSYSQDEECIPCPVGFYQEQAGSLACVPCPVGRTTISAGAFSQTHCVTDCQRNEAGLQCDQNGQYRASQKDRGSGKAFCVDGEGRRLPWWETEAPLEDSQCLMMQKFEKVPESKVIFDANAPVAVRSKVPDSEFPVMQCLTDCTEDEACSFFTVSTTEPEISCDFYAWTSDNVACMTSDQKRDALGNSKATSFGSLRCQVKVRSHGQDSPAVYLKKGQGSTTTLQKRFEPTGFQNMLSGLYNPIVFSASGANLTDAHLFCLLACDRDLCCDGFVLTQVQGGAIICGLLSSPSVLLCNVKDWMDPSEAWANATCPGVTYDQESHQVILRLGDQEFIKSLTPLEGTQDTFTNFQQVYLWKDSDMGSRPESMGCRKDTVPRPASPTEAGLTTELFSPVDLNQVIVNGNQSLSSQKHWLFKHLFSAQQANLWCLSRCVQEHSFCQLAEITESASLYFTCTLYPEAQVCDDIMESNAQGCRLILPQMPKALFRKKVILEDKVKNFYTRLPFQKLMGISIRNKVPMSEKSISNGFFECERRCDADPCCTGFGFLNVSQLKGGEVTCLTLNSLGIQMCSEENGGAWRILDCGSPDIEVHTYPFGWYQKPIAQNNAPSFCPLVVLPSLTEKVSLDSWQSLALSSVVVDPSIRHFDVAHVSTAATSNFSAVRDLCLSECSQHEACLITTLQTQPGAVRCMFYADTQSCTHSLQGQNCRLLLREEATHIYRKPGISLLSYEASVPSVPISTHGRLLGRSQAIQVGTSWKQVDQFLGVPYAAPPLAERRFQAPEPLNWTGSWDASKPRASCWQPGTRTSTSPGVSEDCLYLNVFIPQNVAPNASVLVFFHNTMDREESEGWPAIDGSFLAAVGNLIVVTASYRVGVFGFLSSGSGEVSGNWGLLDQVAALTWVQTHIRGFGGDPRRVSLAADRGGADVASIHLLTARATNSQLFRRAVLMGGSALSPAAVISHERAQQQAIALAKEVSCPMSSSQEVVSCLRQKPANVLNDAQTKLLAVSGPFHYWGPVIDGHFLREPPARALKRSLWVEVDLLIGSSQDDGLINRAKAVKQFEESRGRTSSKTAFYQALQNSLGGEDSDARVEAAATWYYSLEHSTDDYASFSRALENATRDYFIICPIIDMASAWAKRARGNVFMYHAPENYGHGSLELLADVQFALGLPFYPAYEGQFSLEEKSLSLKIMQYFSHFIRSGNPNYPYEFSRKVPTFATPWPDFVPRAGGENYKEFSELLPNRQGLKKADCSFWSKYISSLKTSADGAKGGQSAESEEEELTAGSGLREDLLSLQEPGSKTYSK

[3] = target: T1, human β2-glycoprotein I (β2-GPI); assay: flow cytometry of surface β2-GPI on 293T; HLA-DRB1*14:03
human thyroglobulin (TG) [4] = target: T2, human thyroglobulin (TG); assay: flow cytometry of surface TG (anti-histidine antibody) on 293T; HLA-DRB1*14:03
[5] = target: T1, human β2-glycoprotein I (β2-GPI); assay: flow cytometry of surface β2-GPI on 293T cells (β2-GPI+HLA-DR4)
Experimental: The HLA-DRA*01:01 vector as an α-chain expression vector, the HLA-DRB1*04:04 vector as a β-chain expression vector, the β2-GPI vector, and the GFP vector were introduced to 293T cells, and the 293T cells were cultured. The cultured cells were reacted with an anti-β2-GPI antibody or an anti-cardiolipin antibody (aCL), and further reacted with the APC-labeled anti-human IgG antibody. Then, GFP-positive cells were subjected to flow cytometry analysis in the same manner as in Example 1A. As Control 1, the analysis was performed in the same manner, except that only the β2-GPI expression vector was introduced. As Control 2, the analysis was performed in the same manner, except that only the GFP vector was introduced. [0219] anti-β2-GPI antibody: polyclonal antibody, available from Atlas antibodies [0220] human anti-cardiolipin antibody: Clone EY2C9, supplied by Professor Atsumi, School of Medicine in Hokkaido University. Reference was made to the following paper: Ichikawa, K., M. A. Khamashta, T. Koike, E. Matsuura, and G. R. V. Hughes. 1994. P2-Glycoprotein I reactivity of monoclonal anticardiolipin antibodies from patients with the antiphospholipid syndrome. Arthritis Rheum. 37: 1453.

[6] = target: T1, human β2-glycoprotein I (β2-GPI); assay: flow cytometry of surface β2-GPI on 293T; HLA-DRB1*01:01
[7] = target: T1, human β2-glycoprotein I (β2-GPI); assay: flow cytometry of surface β2-GPI on 293T; HLA-DRB1*03:01
[8] = target: T1, human β2-glycoprotein I (β2-GPI); assay: flow cytometry of surface β2-GPI on 293T; HLA-DRB1*04:01
[9] = target: T1, human β2-glycoprotein I (β2-GPI); assay: flow cytometry of surface β2-GPI on 293T; HLA-DRB1*04:02
[10] = target: T1, human β2-glycoprotein I (β2-GPI); assay: flow cytometry of surface β2-GPI on 293T; HLA-DRB1*04:03
[11] = target: T1, human β2-glycoprotein I (β2-GPI); assay: flow cytometry of surface β2-GPI on 293T; HLA-DRB1*04:05
[12] = target: T1, human β2-glycoprotein I (β2-GPI); assay: flow cytometry of surface β2-GPI on 293T; HLA-DRB1*04:06
[13] = target: T1, human β2-glycoprotein I (β2-GPI); assay: flow cytometry of surface β2-GPI on 293T; HLA-DRB1*07:01
[14] = target: T1, human β2-glycoprotein I (β2-GPI); assay: flow cytometry of surface β2-GPI on 293T; HLA-DRB1*08:01
[15] = target: T1, human β2-glycoprotein I (β2-GPI); assay: flow cytometry of surface β2-GPI on 293T; HLA-DRB1*08:03
[16] = target: T1, human β2-glycoprotein I (β2-GPI); assay: flow cytometry of surface β2-GPI on 293T; HLA-DRB1*09:01
[17] = target: T1, human β2-glycoprotein I (β2-GPI); assay: flow cytometry of surface β2-GPI on 293T; HLA-DRB1*10:01
[18] = target: T1, human β2-glycoprotein I (β2-GPI); assay: flow cytometry of surface β2-GPI on 293T; HLA-DRB1*11:01
[19] = target: T1, human β2-glycoprotein I (β2-GPI); assay: flow cytometry of surface β2-GPI on 293T; HLA-DRB1*12:01
[20] = target: T1, human β2-glycoprotein I (β2-GPI); assay: flow cytometry of surface β2-GPI on 293T; HLA-DRB1*13:01
[21] = target: T1, human β2-glycoprotein I (β2-GPI); assay: flow cytometry of surface β2-GPI on 293T; HLA-DRB1*13:02
[22] = target: T1, human β2-glycoprotein I (β2-GPI); assay: flow cytometry of surface β2-GPI on 293T; HLA-DRB1*13:03
[23] = target: T1, human β2-glycoprotein I (β2-GPI); assay: flow cytometry of surface β2-GPI on 293T; HLA-DRB1*14:01
[24] = target: T1, human β2-glycoprotein I (β2-GPI); assay: flow cytometry of surface β2-GPI on 293T; HLA-DRB1*14:02

B1: HLA-DR (HLA-DRA*01:01/HLA-DRB1*01:03) (other, human)
MHC II alpha: not shown
MHC II beta: not shown
notes: whole, on cells
B1: binds [1]; binds (human thyroglobulin (TG) [2]).

B2: HLA-DR (HLA-DRA*01:01/HLA-DRB1*14:03) (other, human)
MHC II alpha: not shown
MHC II beta: not shown
notes: whole, on cells
B2: binds [3]; binds (human thyroglobulin (TG) [4]).

B3: HLA-DR (HLA-DRA*01:01/HLA-DRB1*04:04) (other, human)
MHC II alpha: not shown
MHC II beta: not shown
notes: whole, on cells; also called HLA-DR4; HLA-DR0404
B3: binds [5].

B4: HLA-DR (HLA-DRA*01:01/HLA-DRB1*01:01) (other, human)
MHC II alpha: not shown
MHC II beta: not shown
notes: whole, on cells; also called HLA-DR1; HLA-DR0101
B4: binds [6].

B5: HLA-DR (HLA-DRA*01:01/HLA-DRB1*03:01) (other, human)
MHC II alpha: not shown
MHC II beta: not shown
notes: whole, on cells; also called HLA-DR3
B5: binds [7].

B6: HLA-DR (HLA-DRA*01:01/HLA-DRB1*04:01) (other, human)
MHC II alpha: not shown
MHC II beta: not shown
notes: whole, on cells
B6: binds [8].

B7: HLA-DR (HLA-DRA*01:01/HLA-DRB1*04:02) (other, human)
MHC II alpha: not shown
MHC II beta: not shown
notes: whole, on cells
B7: binds [9].

B8: HLA-DR (HLA-DRA*01:01/HLA-DRB1*04:03) (other, human)
MHC II alpha: not shown
MHC II beta: not shown
notes: whole, on cells
B8: binds [10].

B9: HLA-DR (HLA-DRA*01:01/HLA-DRB1*04:05) (other, human)
MHC II alpha: not shown
MHC II beta: not shown
notes: whole, on cells
B9: binds [11].

B10: HLA-DR (HLA-DRA*01:01/HLA-DRB1*04:06) (other, human)
MHC II alpha: not shown
MHC II beta: not shown
notes: whole, on cells
B10: binds [12].

B11: HLA-DR (HLA-DRA*01:01/HLA-DRB1*07:01) (other, human)
MHC II alpha: not shown
MHC II beta: not shown
notes: whole, on cells; also called HLA-DR7; APS susceptible HLA-DR7
B11: binds [13].

B12: HLA-DR (HLA-DRA*01:01/HLA-DRB1*08:01) (other, human)
MHC II alpha: not shown
MHC II beta: not shown
notes: whole, on cells
B12: binds [14].

B13: HLA-DR (HLA-DRA*01:01/HLA-DRB1*08:03) (other, human)
MHC II alpha: not shown
MHC II beta: not shown
notes: whole, on cells
B13: binds [15].

B14: HLA-DR (HLA-DRA*01:01/HLA-DRB1*09:01) (other, human)
MHC II alpha: not shown
MHC II beta: not shown
notes: whole, on cells
B14: binds [16].

B15: HLA-DR (HLA-DRA*01:01/HLA-DRB1*10:01) (other, human)
MHC II alpha: not shown
MHC II beta: not shown
notes: whole, on cells
B15: binds [17].

B16: HLA-DR (HLA-DRA*01:01/HLA-DRB1*11:01) (other, human)
MHC II alpha: not shown
MHC II beta: not shown
notes: whole, on cells
B16: binds [18].

B17: HLA-DR (HLA-DRA*01:01/HLA-DRB1*12:01) (other, human)
MHC II alpha: not shown
MHC II beta: not shown
notes: whole, on cells
B17: binds [19].

B18: HLA-DR (HLA-DRA*01:01/HLA-DRB1*13:01) (other, human)
MHC II alpha: not shown
MHC II beta: not shown
notes: whole, on cells
B18: binds [20].

B19: HLA-DR (HLA-DRA*01:01/HLA-DRB1*13:02) (other, human)
MHC II alpha: not shown
MHC II beta: not shown
notes: whole, on cells
B19: binds [21].

B20: HLA-DR (HLA-DRA*01:01/HLA-DRB1*13:03) (other, human)
MHC II alpha: not shown
MHC II beta: not shown
notes: whole, on cells
B20: binds [22].

B21: HLA-DR (HLA-DRA*01:01/HLA-DRB1*14:01) (other, human)
MHC II alpha: not shown
MHC II beta: not shown
notes: whole, on cells
B21: binds [23].

B22: HLA-DR (HLA-DRA*01:01/HLA-DRB1*14:02) (other, human)
MHC II alpha: not shown
MHC II beta: not shown
notes: whole, on cells
B22: binds [24].

From patent US20170176432A1 (OSAKA UNIVERSITY, published 2017)
